# Test results from the RNAGym collection of RNA variant scans (doi:10.1073/pnas.2313332121).
# B1: TPR t1 (parent)
# chain: GACCAAUCUGCCCUCAGAGCUCGAGAACAUCUUCGGAUGCAGAGGAGGCAGGCUUCGGUGGCGCGAUAGCGCCAACGUCCUCAACCUCCAAUGCAUCCCACCACAUGAUGAUGCCUGAAGAGCCUUGGUUUUUUG
# Variants of: B1
# Assay: polymerase ribozyme fitness, log enrichment relative to wild type (log ratio); higher = more active; in vitro selection for triplet polymerase activity
# Summary of the method: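 Frozen incubation at −7 °C formed the core of a single, triplicate in vitro selection round applied to PCR-built, transcribed mutant libraries of each subunit of a heterodimeric triplet polymerase ribozyme. Extended constructs were gel-excised, captured with streptavidin beads and amplified by RT-PCR, and input and output libraries were Illumina-sequenced with a filter of ≥10 input reads and ≥1 read per output. Fitness is the logarithm of genotype enrichment relative to wild-type enrichment, with inverse-variance-weighted replicate averaging, and the logarithm is base 2.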
row,Variant,polymerase ribozyme fitness (log ratio)
1,GACCAAUCUGCCCUCAGAGCUCGAGAACAUCUUCGGAUGCAUAGGAGGCAGGCUUCGGUGGCGCGAUAGCGCCAACGUCCUCAACCUCCAAUCCAUCCCACCACAUGAUGAUGCCUGAAGAGCCUUGGUUUUAUG,-3.57
2,GACCAAUCUGCCCUCAGAGCUCGAGAACAUCUUCGGAUGCAGCGGAGGCAGGCUUCGGUGGCGCGAUAGUGCCAACGUCCUAAACCUCCAUUUCACCCCACCACAUGAUGAUGCCUGAAGAGCGUUGGUUUUUUG,-3.67
3,GACCAAUCUGCCCUCAGAGCUCGAGAACAUCUUCGGAUGCAGCGGAGGCAGGCUUCGGUGGCGCGAUAGCGCCAACGUCCUCAACCUCCAAUGCAUCCCACCACAUGAUGAUGCUUGAAGAGCCUUGGUUUUUUG,-3.33
4,GACCAAUCUGCCCUCAGAGCUCGAGAACAUCUUCGGAUGCAUAGGAGGCAGGCUUCGGAGGCGCGAUAUCGCCAACGUCCUCAACCUCCAAUGCAUCCCACCACAUGAUGAUGCCUGAAGAGCCUUGGUUUUUUG,-0.413
5,GACCAAUCUGCCCUCAGAGCUCGAGAACAUCUUCGGAUGCAUAGGAGGCAGGCUUCGGUGGCGCGAUAGCGCCAACUUCCUCAACCUCCAAUGCAUCCCACCACAUGAUGAUGCCUGAAGAGCCUUGGUUUUUUG,-1.86
6,GACCAAUCUGCCCUCAGAGCUCGAGAACAUCUUCGGAUGCAUAGGAGGCAGGCUUCGGUGGCACGAUAGCGCCAACGUCCUCAACCUCCAAUUCAUCCCACCACAUGAUGAUGCCUGAAGAGCCUUGGUUUUUUG,-3.94
7,GACCAAUCUGCCCUCAGAGCUCGAGAACAUCUUCGGAUGCAUAGGAGGCAGGCUUCGGUGGCGCGAUACCGCCAACGUCCUCAACCUCCAAUGCAUCCCACCACAUGAUGAUGCCUGAAUAGCCUUGGUUUUUUG,-3.45
8,GACCAAUCUGCCCUCAGAGCUCGAGAACAUCUUCGGAUGCAGCGGAGGCAGGCUUCGGUAGCGCGAUAGCGCCAACGUCCUCAACCUCCAAUGCAUCCCACCACAUGAUGAUGCCUGAAGAGCCUUGGUUUUUUG,-2.3
9,GACCAAUCUGCCCUCAGAGCUCGAGAACAUCUUCGGAUGCAGCGGAGUCAGGCAUCGGUGGCGCGAUAGCGCCAACUUCCUCAACCUCCAAUGCAUCCCACCACAUGAUGAUGCCUGAAAAGCCUUGGUUUUUUA,-2.07
10,GACCAAUCUGCCCUCAGAGCUCGAGAACAUCUUCGGAUGCAUAGGAGGCAGGCUUCGGUGGCACGAUAGCGCCAACGUCCUCAACCUCUAAUGCAUCCCACCACAUGAUGAUGCCUGAAGAGCCUUGGUUUUUUG,-3.28
11,GACCAAUCUGCCCUCAGAGCUCGAGAACAUCUUCGGAUGCAGCGGAGGCAGGCUUCGGUGGCGCGAUAGAGCCAACGUCCUCAACCUCCAAUGUAUCCCACCACAUGAUGAUGCCUGAAGAGCCUUGGUUUUUUG,-6.65
12,GACCAAUCUGCCCUCAGAGCUCGAGAACAUCUUCGGAUGCAGCGGAGGCAGGCUUUGGUGGCGCGAUAGCGCCAACGUCCUCAACCUCCAAUGCAUCCCACCACAUGAUGAUGCCUGAAGAGCCUUGGUUUUUUG,-2.57
13,GACCAAUCUGCCCUCAGAGCUCGAGAACAUCUUCGGAUGCAUAGGAGGCAGGCUUCGGUGGCGCGAUAGCGCCAACGUCCUCAACCUCCAAUGCAUCCCACCACAUGAUGAUGCCUGAAGAGCCUUGGUUUUUUU,-1.66
14,GACCAAUCUGCCCUCAGAGCUCGAGAACAUCUUCGGAUGCAGCGGAGGCAGGCUUAGGAGGCGCGAUAGCGUCAACGUCCUCAACCUCCAAUGCAUCCCACCACAUGAUGAUGCCUGAAGAGCCUUGGUUUUUUG,-3.55
15,GACCAAUCUGCCCUCAGAGCUCGAGAACAUCUUCGGAUGCAUAGGAGGCAGGCUUCGGUGGCGCGAUAGCACCAACGUCCUCAACCUCCAAAGCAUCCCACCACAUGAUGAUGCCUGAAGAGCCUUGGUUUUUUG,-3.78
16,GACCAAUCUGCCCUCAGAGCUCGAGAACAUCUUCGGAUGCAGCGGAGGCAGGCUUCGGUGGCCCGAUAGCGCCAACGUCCUCAACCUCCAAUGCAUCCCACCACAUGAUGAUGCCUGAAGAGCCUUGGUUUUUUG,-3.41
17,GACCAAUCUGCCCUCAGAGCUCGAGAACAUCUUCGGAUGCAUAGGAGGCAGGCUUCUGUGGCGCGAUAGCGCCAACGUCCUCAAACUCCAAUGCAUCCCACCACAUGAUGAUGCCUGAAGAGCCUUGGUUUUUUG,-2.51
18,GACCAAUCUGCCCUCAGAGCUCGAGAACAUCUUCGGAUGCAGCGGAGGCAGGCUUCGGUGGCGCGAUAGCGCCGACGUCCUCAACCUCCAAUGCAUCCCAACACAUGAUGGUGCCUGAAGAGCCUUGGUUUUUUG,-3.37
19,GACCAAUCUGCCCUCAGAGCUCGAGAACAUCUUCGGAUGCAUAGGAGGCAGGCUUCGGUGGCCCGAUAGCGCCAAAUUCCUCAACCUCCUAUGCAUCCCACCACAUGAUGAUGCCUCAAGAGCCUUUCUUUUUUG,-3.83
20,GACCAAUCUGCCCUCAGAGCUCGAGAACAUCUUCGGAUGCAGCGGAGGCAGGCUUCGGUGGUGCGAUAGCGCCAACGUCCUCAACCGGCCAUGCAUCCCACCACAUGAUGAUGCCUGAAGAGCCUUCGUUUCUUG,-3.94
21,GACCAAUCUGCCCUCAGAGCUCGAGAACAUCUUCGGAUGCAGCGGAGGCAGGCUUCGGUGGCGCGAUAGCGCCAACGUCCUCAACCUCCAAUGUAUCCCACCACAUGAUGAUGCCUGAAGAGCCUUGGUUUUUUG,-2.66

row,Variant,polymerase ribozyme fitness (log ratio)
1,GACCAAUCUGCCCUCAGAGCUCGAGAACAUCUUCGGAUGCAGCGGAGGCAGGCUUCGGUGGCGCGAUAGCGCCAACGUCCUCAACCUCCAAUGGAUCCCACCACAUGAUGAUGCCUGAAGAGCCUUGGUUUUUUG,-4.54
2,GACCAAUCUGCCCUCAGAGCUCGAGAACAUCUUCGGAUGCAGCGGAGGCAGGCUUCGGUGCCGCGAUAGCGCCAACGUCCUCAACCUCCAAUGCAUCCCACCACAUGAUGAAGCCUGAAGAGCCUUGGUUUUUUG,-5.07
3,GACCAAUCUGCCCUCAGAGCUCGAGAACAUCUUCGGAUGCAGCGCAGGCAGGCUUCGGUGGCCCGAUAGCGCCAACGUCCUCAACCUCCAAUGCAUCCCACCACAUGAUGAUGCCUUUAGAGCCUUGGUUUUUUA,-5.43
4,GACCAAUCUGCCCUCAGAGCUCGAGAACAUCUUCGGAUGCAUAGGAGGCAGGCGUCGGUGGCGCGAUAGCGCCAAUGUCCUCAACCUCCAAUGCAUCCCACCACAUGAUGGUGCCUGAAGAGCCUUGGUUUUUUG,-2.36
5,GACCAAUCUGCCCUCAGAGCUCGAGAACAUCUUCGGAUGCAGCGGAGGGAGGCUUCGGUGGCGCGAUAGCGCCAACGUCCUCAGCCUCCAAUGCAUCCCACCACAUGAUGAUGCUUGAAGAGCCUUGGUUUUUUU,-6.22
6,GACCAAUCUGCCCUCAGAGCUCGAGAACAUCUUCGGAUGCAUAGGAGGCAGGCUUCGGUGGCGCGAUAGCACCAACGUCCUCAACCUCCAAUGCAUCCCACCACAUGAUGAUGCCUGAAGAGCCUUGGUUUUUUG,-2.43
7,GACCAAUCUGCCCUCAGAGCUCGAGAACAUCUUCGGAUGCAUAGGAGGCAGGCUUCGGUGGCGCGAUAGCGCCAACGUCCUCAACCUCCAAUGCAUCCCACCACAAGAUGAUGCCUGAAGAGCCUUGGUUUUUUG,-1.56
8,GACCAAUCUGCCCUCAGAGCUCGAGAACAUCUUCGGAUGCAGCGGAGGCAGGCUUCGGUGGCGCGAUAGCGCCAACGUCCUCAACCUCCAAUGCAUCCCACCACAUGAUGAUGCCUUAAGAGCCUUGGUUUUUUG,-5
9,GACCAAUCUGCCCUCAGAGCUCGAGAACAUCUUCGGAUGCAUAGGAGGCAGGCUUCGGUGGCGCGAUAGCGCCAACGUCCUCAACCUCCAAUGCAUCCCACCACAUGAUGAUGCCUAAAGAGCCUUGGUUUUUUG,-2.9
10,GACCAAUCUGCCCUCAGAGCUCGAGAACAUCUUCGGAUGCAGCGGAGGCAGGCUUCGGUGGCGCGAUAGCUCCAACGUCUUCAACCUCCAAUGCAUCCCACCACAUGAUAAUUCCUGAAGAGCCUUGGUUUUUUG,-7.29
11,GACCAAUCUGCCCUCAGAGCUCGAGAACAUCUUCGGAUGCAGCGGAGGUAGGCUUCGGUGGCUCGCUAGCGCCAACGUCCUCAACCUCCAAUGCAUCCCACCACAUGAUGAUGCCUGAAGAGCCUUGGUUUUUUG,-5.38
12,GACCAAUCUGCCCUCAGAGCUCGAGAACAUCUUCGGAUGCAGCGGAGGCAGGCUUCGGUGGCGCGAUACCGCCAACGUCCUCAACCUCCAAUGCAUCCCACCACAUGAUGAUGCCUGAAGAGCCUUGGUUUUUUG,-4.47
13,GACCAAUCUGCCCUCAGAGCUCGAGAACAUCUUCGGAUGCAGCCGAGGCAGGCUUCGGUGGCGCGAUAGCGCCAACGUCCUCAACCUCCAAUGCAUCCCACCACAUGAUGAUGCCUGAAGAGCCUUGGUUUUUUG,-1.05
14,GACCAAUCUGCCCUCAGAGCUCGAGAACAUCUUCGGAUGCAGCGGAUGCAGGCUUCGGUGGCGCGAUAUCGCCAACGUCCUCAACCUCCAAUGCAUCCCACCACAUGAUGAUGCCUGAAGAGCCUUGGUUUUUUG,-1.43
15,GACCAAUCUGCCCUCAGAGCUCGAGAACAUCUUCGGAUGCAUAGGAGGCAGGCUUCGGUGGCGCGAUAGCGCCAACGUCCUCAACCCCCAAUGCAUCCCACCACAUGAUGAUGCCUGAAGAGACUUGGUUCUUUG,-0.903
16,GACCAAUCUGCCCUCAGAGCUCGAGAACAUCUUCGGAUGCAUAGGAGGCAGGCUUCGCUGGCGCGAUAGCGCCAACGUCCUCAACCCCCAAUGCAUCCCACCACAUGAUGAUGCCUGAAAAGGCAUGGUUUUUUG,0.38
17,GACCAAUCUGCCCUCAGAGCUCGAGAACAUCUUCGGAUGCAUAGGAGGCAGGCUUCGGUGGCGCGAUAGCGCCAACGUCCUCAACCGCCAAUGCAUCCCACCACAUGAUGAUGCCUGAAGAGCCUUGGUUUUUUG,-0.907
18,GACCAAUCUGCCCUCAGAGCUCGAGAACAUCUUCGGAUGCAUAGGAGGCAGGCUUCGGUGGCGCGAUAACGCCAACGUCCUCAACCUCCAAUGCAUCCCACCACAUGAUGAUGCCUGAAGAGCCUUGGUUUUUUG,-5.35
19,GACCAAUCUGCCCUCAGAGCUCGAGAACAUCUUCGGAUGCAGCGGAGGCAGGCUUCGGUGGGGCGAUAGCGCCAACGUCCUCAACCUCCAAUGCAUCCCACCACAUGAUGAUGCCUGAAAAGCCUUGGUUUUUUG,-4.98
20,GACCAAUCUGCCCUCAGAGCUCGAGAACAUCUUCGGAUGCAGCGGAGGCAGGCUUCGGUGGCGCGAUAGCGCCAAUGUCCUCAACCUCCAAUGCAUCUCACCACAUGAUGAUGCCUUAAGAGCCUUGGUUUUUUG,-7.18
21,GACCAAUCUGCCCUCAGAGCUCGAGAACAUCUUCGGAUGCAGCGGAGGCAGGCUUCGGUGGCGCGAUAGCGCCAACGUCCUCAACCUCCAAUGCAUCCCACCACAUGAUGAUGCCUGAAGAGACUUGGUUUUUUG,-2.65
